Source: publication PMC6411926, “Engagement of DNA and H3K27me3 by the CBX8 chromodomain drives chromatin association” (Nucleic Acids Research, 2018)
Values belong to the molecule of their own block, whether it stands above or below them. Ends that are not written are not given here. trimethyl = trimethyl-lysine

How the values were obtained:
[1] = target: histone H3K27me3 peptide (Homo sapiens) (UniProt P68431); details: cited from earlier work
CBX8 chromodomain (CD) = target: T1, CBX8 chromodomain (CD) (UniProt Q9HC52 8-61); assay: NMR titration (1H-15N HSQC); authors' estimate (likely); saturation at ~1:1, curved CSPs; EMSA: 25 mM phosphate pH 6.8, 25 mM NaCl, 1 mM EDTA, 1 mM DTT, 15 min on ice, 6% gel in 0.4x TBE; NMR: 40 mM phosphate pH 6.8, 100 mM NaCl, 25 C; details: protein: recombinant; tags: GST removed by TEV; 15N-labelled for NMR; blunt
T1 sequence: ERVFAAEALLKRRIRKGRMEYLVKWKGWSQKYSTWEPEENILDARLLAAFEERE

[2] = target: T2, CBX8 chromodomain (residues 8-61) (UniProt Q9HC52 8-61); assay: NMR titration; 1H-15N HSQC; histone peptide added to 15N-CD pre-bound to an 11 bp DNA (CD:DNA 1:1); details: both partners purified
T2 construct: CBX8 chromodomain, residues 8-61; Uniformly 15N-labelled for the NMR titrations; The methods name two chromodomain constructs (Addgene 62514 and GST-CBX8 8-61 in pGSTag); the purification that is described is that of the GST fusion cleaved with TEV; also called CD; CBX8 CD; source: E. coli BL21 (DE3), purified (glutathione agarose, TEV cleavage, cation exchange, Superdex 75)
T2 sequence (looked up): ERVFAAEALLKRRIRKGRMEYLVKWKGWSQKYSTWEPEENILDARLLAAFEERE

[3] = target: T2, CBX8 chromodomain (residues 8-61); assay: NMR titration; 1H-15N HSQC of 0.05-0.10 mM 15N-CBX8 CD with increasing molar ratios of unlabelled histone peptide; 25 °C; 100 mM NaCl, 40 mM phosphate pH 6.8; CSPs fit to a single-site model with ligand depletion, global Kd as the average over perturbed resonances; details: both partners purified

Molecule: CBX8 chromodomain (from UniProt Q9HC52)
- Kd [1]: > 500 µM

B1: 11 bp DNA (dsDNA)
DNA 1: GCGTTTAAGCG
DNA 2: CGCTTAAACGC
- Kd (CBX8 chromodomain (CD)): < 10 µM

- Kd [2]: 200 µM
- Kd [3]: 700 µM
B2: H3K27me3 (23-34) histone peptide (peptide)
chain: KAARK(trimethyl)SAPATGG
